Where “and” joins values, the source holds several entries; their conditions need not be identical. Equal values may be shown once.

The assay concerns the target Flag-tagged tomato PCNA (Proliferating cell nuclear antigen) (Solanum lycopersicum). Description: western blot of anti-Flag immuno-purified protein. For orientation: A western blot detects proteins with antibodies after separation by electrophoresis.

What is called stoichiometry N is the number of molecules, sites or subunits per partner or assembly. In the case of “Flag-tagged tomato PCNA (Proliferating cell nuclear antigen) (natural protein)”, the stoichiometry N is 2 and 3.
